In article PMC10842004:
“And” between values parts separate entries of the source, which are not always exact repeats. Equal values may be shown once. Blank lines part the entries; values can stand above or below the substance they belong to.

Columns and labels:
[1] = target: FLAG-RAD23A lacking UBA1 (human) (UniProt P54725); assay: co-IP
[2] = target: single point mutations in RAD23A UBA1 or UBA2 (as tested with Pol ι); assay: co-IP
[3] = target: single point mutations in RAD23A UBA1 or UBA2 (as tested with Pol κ); assay: co-IP
[4] = target: His Pol ι aa 1–419 (catalytic domain of Pol ι) (human); assay: MST
[5] = target: single point mutations in RAD23A UBA1 or UBA2 (as tested with Rev1); assay: co-IP

HA-tagged Pol κ, sequence (Q9UBT6 whole entry): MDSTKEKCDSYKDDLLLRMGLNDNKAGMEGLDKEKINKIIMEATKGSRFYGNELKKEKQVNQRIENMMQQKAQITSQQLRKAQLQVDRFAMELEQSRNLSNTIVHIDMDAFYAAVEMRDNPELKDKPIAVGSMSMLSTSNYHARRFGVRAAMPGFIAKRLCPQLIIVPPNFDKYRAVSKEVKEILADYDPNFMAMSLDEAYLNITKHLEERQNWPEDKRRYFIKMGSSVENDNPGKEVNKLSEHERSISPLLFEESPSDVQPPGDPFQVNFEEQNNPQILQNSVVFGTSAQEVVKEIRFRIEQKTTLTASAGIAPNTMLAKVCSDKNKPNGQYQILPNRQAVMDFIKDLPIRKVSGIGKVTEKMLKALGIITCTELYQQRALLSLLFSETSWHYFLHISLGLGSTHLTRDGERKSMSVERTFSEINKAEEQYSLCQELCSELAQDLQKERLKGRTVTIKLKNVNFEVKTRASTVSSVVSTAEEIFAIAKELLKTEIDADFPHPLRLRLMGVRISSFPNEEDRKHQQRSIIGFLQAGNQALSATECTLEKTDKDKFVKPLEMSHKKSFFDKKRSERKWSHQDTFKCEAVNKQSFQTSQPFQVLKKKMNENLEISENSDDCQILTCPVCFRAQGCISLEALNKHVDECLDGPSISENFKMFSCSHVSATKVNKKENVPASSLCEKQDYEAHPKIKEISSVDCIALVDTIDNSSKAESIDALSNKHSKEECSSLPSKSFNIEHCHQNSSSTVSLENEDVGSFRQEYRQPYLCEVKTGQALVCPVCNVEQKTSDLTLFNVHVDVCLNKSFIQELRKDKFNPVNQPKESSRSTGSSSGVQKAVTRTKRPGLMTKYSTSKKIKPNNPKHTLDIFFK
HA-tagged REV1, sequence (Q9UBZ9 whole entry): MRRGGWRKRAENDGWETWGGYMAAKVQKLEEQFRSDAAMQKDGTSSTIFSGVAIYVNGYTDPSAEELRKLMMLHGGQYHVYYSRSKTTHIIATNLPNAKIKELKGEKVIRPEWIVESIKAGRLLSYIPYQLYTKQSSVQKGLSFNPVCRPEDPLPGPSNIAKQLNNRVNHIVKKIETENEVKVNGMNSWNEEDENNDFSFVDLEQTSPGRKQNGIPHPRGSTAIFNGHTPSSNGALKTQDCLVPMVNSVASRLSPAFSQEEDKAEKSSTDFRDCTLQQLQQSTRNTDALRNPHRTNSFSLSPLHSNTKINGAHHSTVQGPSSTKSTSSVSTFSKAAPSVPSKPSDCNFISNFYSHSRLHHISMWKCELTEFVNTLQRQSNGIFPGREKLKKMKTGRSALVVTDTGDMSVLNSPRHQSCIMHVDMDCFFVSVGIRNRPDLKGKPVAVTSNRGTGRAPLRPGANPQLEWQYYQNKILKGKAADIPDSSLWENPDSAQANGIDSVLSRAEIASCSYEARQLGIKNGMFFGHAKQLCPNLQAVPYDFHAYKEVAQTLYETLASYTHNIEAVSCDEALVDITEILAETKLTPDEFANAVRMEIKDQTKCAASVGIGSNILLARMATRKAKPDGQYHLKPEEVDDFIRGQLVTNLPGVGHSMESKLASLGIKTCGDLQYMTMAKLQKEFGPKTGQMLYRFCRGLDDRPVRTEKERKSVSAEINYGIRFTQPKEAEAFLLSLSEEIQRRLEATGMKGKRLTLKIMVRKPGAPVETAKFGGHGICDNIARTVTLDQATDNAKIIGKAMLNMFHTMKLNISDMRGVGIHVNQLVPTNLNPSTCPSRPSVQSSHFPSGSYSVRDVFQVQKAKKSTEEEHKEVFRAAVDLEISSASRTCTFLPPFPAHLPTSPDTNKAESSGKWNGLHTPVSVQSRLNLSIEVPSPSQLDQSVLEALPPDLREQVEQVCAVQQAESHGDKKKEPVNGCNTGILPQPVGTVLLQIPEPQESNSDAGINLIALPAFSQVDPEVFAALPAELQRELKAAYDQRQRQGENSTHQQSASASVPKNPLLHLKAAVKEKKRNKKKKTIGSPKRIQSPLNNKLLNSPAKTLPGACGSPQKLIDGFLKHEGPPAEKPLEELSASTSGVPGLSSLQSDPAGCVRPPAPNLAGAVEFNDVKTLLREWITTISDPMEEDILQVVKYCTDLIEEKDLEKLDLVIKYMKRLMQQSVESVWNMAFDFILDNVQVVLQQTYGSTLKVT

percent reduction of binding against WT RAD23A [1]: 75 to 85%
percent disruption of binding against WT RAD23A [2]: 40% and 60%
Substance: WT HA-Pol ι (enzyme)

percent disruption of binding against WT RAD23A [3]: 40% and 60%
Substance: HA-tagged Pol κ (from UniProt Q9UBT6 1-870) (enzyme)

Kd [4]: 90 µM
Substance: RAD23A ΔUBL fragment (domain or fragment)

percent disruption of binding against WT RAD23A [5]: 70 to 80%
Substance: HA-tagged REV1 (from UniProt Q9UBZ9 1-1251) (enzyme)
